Biological target: T1, insulin like growth factor 1 receptor (IGF1R) (human, UniProt P08069 31-736; P08069 741-1367)
T1 construct: Endogenous IGF1R in MCF-7 and T47D breast cancer cells; also called IGF1 receptor; IGFR1
Experiment: in situ proximity ligation assay (Duolink), MCF-7 and T47D cells
Description: In situ proximity ligation assay (PLA) was used to analyze the direct interaction between IGF1R and E-cadherin in breast cancer cells. MCF-7 (FIG. 7A) and T47D (FIG. 7B) cells were plated on coverslips, fixed, and stained with IGF1R and E-cadherin antibody overnight. The Duolink (Sigma) protocol was followed and coverslips were imaged using confocal microscopy to reveal red puncta. MCF-7 cells transfected with anti-CDH1 siRNA (siCDH1; FIG. 7C) or anti-IGF1R siRNA (siIGF1R; FIG. 7D) were used as negative controls for the assay to assess primary antibody specificity. […] All puncta and nuclei in 60× images were counted. One-way ANOVA was used to determine significant difference between groups (p<0.05; one independent experiment, n=5 images per slide counted). Further, IGF1R (green; second column from left) and E-cadherin (red; third column from left) were analyzed for co-localization (merge; fourth column from left) by immunofluorescence staining in MCF-7 cells transfected with siSCR (FIG. 7J) or siCDH1 (FIG. 7K). […]
Cells were plated on coverslips and fixed in 4% paraformaldehyde for 30 minutes at 37° C. […] The ratio of puncta/nuclei for each experimental condition was calculated by counting all puncta and nuclei in five 60× images.

T1 sequence (P08069 31-736, chain 1 of 2): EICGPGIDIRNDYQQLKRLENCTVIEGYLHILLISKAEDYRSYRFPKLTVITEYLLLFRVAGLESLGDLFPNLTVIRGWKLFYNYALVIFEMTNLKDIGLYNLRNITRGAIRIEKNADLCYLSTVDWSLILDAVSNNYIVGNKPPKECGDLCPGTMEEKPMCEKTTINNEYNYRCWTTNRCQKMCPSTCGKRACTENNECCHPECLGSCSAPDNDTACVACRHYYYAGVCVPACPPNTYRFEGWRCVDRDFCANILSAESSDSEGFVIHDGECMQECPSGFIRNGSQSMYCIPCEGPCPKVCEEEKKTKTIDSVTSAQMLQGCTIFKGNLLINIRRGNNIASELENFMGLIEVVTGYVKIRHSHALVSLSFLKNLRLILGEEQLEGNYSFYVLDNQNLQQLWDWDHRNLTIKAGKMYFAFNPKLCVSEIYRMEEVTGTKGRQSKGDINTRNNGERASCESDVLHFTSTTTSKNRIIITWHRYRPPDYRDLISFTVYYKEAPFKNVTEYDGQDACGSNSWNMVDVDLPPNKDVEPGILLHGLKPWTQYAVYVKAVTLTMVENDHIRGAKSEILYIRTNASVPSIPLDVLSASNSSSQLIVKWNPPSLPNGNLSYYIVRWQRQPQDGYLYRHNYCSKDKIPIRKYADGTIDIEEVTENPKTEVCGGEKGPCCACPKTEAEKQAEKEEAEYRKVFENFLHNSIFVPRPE
T1 sequence (P08069 741-1367, chain 2 of 2): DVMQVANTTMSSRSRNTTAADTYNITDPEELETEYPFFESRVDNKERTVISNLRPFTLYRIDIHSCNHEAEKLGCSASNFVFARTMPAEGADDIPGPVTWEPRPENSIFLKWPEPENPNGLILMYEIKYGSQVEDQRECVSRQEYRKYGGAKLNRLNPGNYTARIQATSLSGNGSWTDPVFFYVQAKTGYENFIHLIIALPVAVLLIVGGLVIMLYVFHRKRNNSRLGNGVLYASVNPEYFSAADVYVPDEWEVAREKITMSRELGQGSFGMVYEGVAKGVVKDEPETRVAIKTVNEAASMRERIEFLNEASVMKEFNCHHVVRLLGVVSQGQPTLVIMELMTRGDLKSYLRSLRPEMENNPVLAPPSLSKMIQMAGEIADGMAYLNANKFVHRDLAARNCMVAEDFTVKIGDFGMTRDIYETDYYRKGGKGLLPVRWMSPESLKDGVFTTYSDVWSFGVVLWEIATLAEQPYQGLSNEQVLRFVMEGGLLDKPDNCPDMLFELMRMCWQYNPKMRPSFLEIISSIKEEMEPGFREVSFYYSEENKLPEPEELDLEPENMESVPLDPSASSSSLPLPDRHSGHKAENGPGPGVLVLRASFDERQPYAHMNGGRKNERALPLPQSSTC

- binding result: binds
B1: E-cadherin (CDH1) (other)
chain: DWVIPPISCPENEKGPFPKNLVQIKSNKDKEGKVFYSITGQGADTPPVGVFIIERETGWLKVTEPLDRERIATYTLFSHAVSSNGNAVEDPMEILITVTDQNDNKPEFTQEVFKGSVMEGALPGTSVMEVTATDADDDVNTYNAAIAYTILSQDPELPDKNMFTINRNTGVISVVTTGLDRESFPTYTLVVQAADLQGEGLSTTATAVITVTDTNDNPPIFNPTTYKGQVPENEANVVITTLKVTDADAPNTPAWEAVYTILNDDGGQFVVTTNPVNNDGILKTAKGLDFEAKQQYILHVAVTNVVPFEVSLTTSTATVTVDVLDVNEAPIFVPPEKRVEVSEDFGVGQEITSYTAQEPDTFMEQKITYRIWRDTANWLEINPDTGAISTRAELDREDFEHVKNSTYTALIIATDNGSPVATGTGTLLLILSDVNDNAPIPEPRTIFFCERNPKPQVINIIDADLPPNTSPFTAELTHGASANWTIQYNDPTQESIILKPKMALEVGDYKINLKLMDNQNKDQVTTLEVSVCDCEGAAGVCRKAQPVEAGLQIPAILGILGGILALLILILLLLLFLRRRAVVKEPLLPPEDDTRDNVYYYDEEGGGEEDQDFDLSQLHRGLDARPEVTRNDVAPTLMSVPRYLPRPANPDEIGNFIDENLKAADTDPTAPPYDSLLVFDYEGSGSEAASLSSLNSSESDKDQDYDYLNEWGNRFKKLADMYGGGEDD
notes: Endogenous E-cadherin in MCF-7 and T47D breast cancer cells; also called epithelial cadherin; CD324

From patent US20190315847A1 (UNIVERSITY OF PITTSBURGH OF THE COMMONWEALTH SYSTEM OF …, published 2019)
